In patent EP4737482A1 (Atheon Bio, Inc., dated 2026):
Changes are numbered by the printed parent chain. Values belong to the binder of their own block, whether it stands above or below them.

Experiments:
human MYCT1 (hMYCT1) [1] = target: T1, human MYCT1 (hMYCT1) (human, UniProt Q8N699 1-235, limits assumed); experiment: SPR koff ranking, 1:1 binding model
T1 construct: also called MYC Target 1
T1 sequence: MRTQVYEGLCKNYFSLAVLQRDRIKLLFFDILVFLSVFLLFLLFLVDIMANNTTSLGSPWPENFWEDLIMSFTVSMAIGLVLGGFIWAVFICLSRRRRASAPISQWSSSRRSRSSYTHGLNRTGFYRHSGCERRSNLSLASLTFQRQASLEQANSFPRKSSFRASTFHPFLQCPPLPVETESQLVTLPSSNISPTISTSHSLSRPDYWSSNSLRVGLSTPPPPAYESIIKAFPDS

human MYCT1 (hMYCT1) [2] = target: T1, human MYCT1 (hMYCT1); experiment: SPR koff ranking, single curve, antibody captured via anti-human Fc IgG, 10 nM MYCT1 as analyte, 1:1 binding model
human MYCT1 (hMYCT1) [3] = target: T1, human MYCT1 (hMYCT1); experiment: SPR full kinetics, multicycle, antibody captured via anti-human Fc IgG, MYCT1 0.625-10 nM as analyte, 1:1 binding model
human MYCT1 (hMYCT1) [4] = target: T1, human MYCT1 (hMYCT1); experiment: SPR full kinetics (Biacore 8K), antibody captured via anti-human Fc IgG, MYCT1 as analyte, steady-state affinity model
human MYCT1 (hMYCT1) [5] = target: T1, human MYCT1 (hMYCT1); experiment: SPR (Biacore 8K), antibody captured via anti-human Fc IgG, MYCT1 as analyte, steady-state affinity model
human MYCT1 (hMYCT1) [6] = target: T1, human MYCT1 (hMYCT1); experiment: as above; remark: listed apart in the source

B1: 11B6 parent antibody (antibody, V domains shown)
VH: EVQLVESGGGLVKPGGSLKLSCAASGFTFSDFGIHWVRQAPEKGLEWVGYISSGSRTIHYADTVKGRFTISRDNAKNTLFLQMTNLRSEDTAIYYCARRDWDPEWLAYWGQGTLVTISA
VL: DVVMTQAPLSLPVSLGDQASISCRSSLSLVHSNGHTYLHWYLQKPGQSPKLLIYKVSNRFSGVPDRFSGSGSGTDFTLKIRRVEAEDLGVYFCSQSTHVPFTFGSGTKLEIK
notes: Mouse parental variable domains; also called parent antibody (11B6); 11B6 clone
koff (human MYCT1 (hMYCT1) [1]): 0.00456 s⁻¹
koff (human MYCT1 (hMYCT1) [2]): 0.00496 s⁻¹
Kd (human MYCT1 (hMYCT1) [3]): 1.2 nM
koff (human MYCT1 (hMYCT1) [3]): 0.00411 s⁻¹
kon (human MYCT1 (hMYCT1) [3]): 3.44e+06 M⁻¹ s⁻¹

B3: 11B6-z16-p3-uIgG1K (antibody, V domains shown)
VH: B1 VH with K19R, E42G, T78S, F80Y, T84N, N85S, S88A, I93V, I117V, A119S
VL: B1 VL with V2I, A7S, S14T, L15P, D17E, Q18P, G34A, R81S, L88V, S105Q
notes: also called hzATN001; ATN001
Kd (human MYCT1 (hMYCT1) [3]): 2.53 nM
koff (human MYCT1 (hMYCT1) [3]): 0.00841 s⁻¹
kon (human MYCT1 (hMYCT1) [3]): 3.32e+06 M⁻¹ s⁻¹

B4: 11B6-z12-p3-uIgG1K (antibody, V domains shown)
VH: B1 VH with K19R, E42G, T78S, F80Y, T84N, N85S, S88A, I117V, A119S
VL: B1 VL with A7S, S14T, L15P, D17E, Q18P, G34A, L88V, S105Q
Kd (human MYCT1 (hMYCT1) [3]): 2.35 nM
koff (human MYCT1 (hMYCT1) [3]): 0.00786 s⁻¹
kon (human MYCT1 (hMYCT1) [3]): 3.35e+06 M⁻¹ s⁻¹

B7: 2B4-z11-uIgG1K (antibody, V domains shown)
VH: QVQLVQSGAEVKKPGASVKVSCKASGYTFTDYNMHWVRQAPGQGLEWMGYINPNNGGSSYNRKFKGRVTLTVDKSTRTAYMELRSLRSDDTAVYYCATRFDVWGQGTTVTVSS
VL: DVVMTQSPLSLPVTLGQPASISCKSSQSLLFSDGKTYLNWLQQRPGQSPRRLIYLVSKLDSGVPDRFSGSGSGTDFTLKISRVEAEDVGVYYCWQGTHFPQTFGGGTKVEIK
Kd (human MYCT1 (hMYCT1) [5]): 449 nM

B9: 2B4-z12-uIgG1K (antibody, V domains shown)
VH: B7 VH with V20M
VL: B7 VL
Kd (human MYCT1 (hMYCT1) [5]): 428 nM

B12: 2B4-z6-uIgG1K (antibody, V domains shown)
VH: B7 VH with L70M, V72T, K74T
VL: B7 VL
Kd (human MYCT1 (hMYCT1) [5]): 447 nM

B13: 2B4-z8-p7-uIgG1K (antibody, V domains shown)
VH: B7 VH with M48I, N55S, L70M, V72T, K74T, R77S
VL: B7 VL with G34A
Kd (human MYCT1 (hMYCT1) [4]): 586 nM

B14: 2B4-z7-uIgG1K (antibody, V domains shown)
VH: B7 VH with V20M, L70M, V72T, K74T, R77S
VL: B7 VL
Kd (human MYCT1 (hMYCT1) [5]): 382 nM

B15: 2B4-z3-uIgG1K (antibody, V domains shown)
VH: B7 VH with V72T, K74T, R77S
VL: B7 VL
Kd (human MYCT1 (hMYCT1) [5]): 332 nM

B17: 2B4-z5-uIgG1K (antibody, V domains shown)
VH: B7 VH with L70M, V72T, R77S
VL: B7 VL
Kd (human MYCT1 (hMYCT1) [5]): 351 nM

B18: 2B4 parent antibody (antibody, V domains shown)
VH: EVQLQQSGPELVKPGASVKMSCKASGYTFTDYNMHWVRQSHGKGLEWIGYINPNNGGSSYNRKFKGKATLTVNKSSRSASMELRSLTSEDSAVYYCATRFDVWGTGTTVTVSS
VL: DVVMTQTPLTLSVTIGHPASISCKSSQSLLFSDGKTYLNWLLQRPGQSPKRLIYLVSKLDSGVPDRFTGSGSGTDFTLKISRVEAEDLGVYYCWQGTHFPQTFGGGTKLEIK
notes: Mouse parental variable domains; also called parent antibody (2B4); 2B4 clone
Kd (human MYCT1 (hMYCT1) [6]): 273 nM
Kd (human MYCT1 (hMYCT1) [5]): 181 nM
Kd (human MYCT1 (hMYCT1) [4]): 281 nM

B23: 2B4-p1-uIgG1K (antibody, V domains shown)
VH: B18 VH with N55Q
VL: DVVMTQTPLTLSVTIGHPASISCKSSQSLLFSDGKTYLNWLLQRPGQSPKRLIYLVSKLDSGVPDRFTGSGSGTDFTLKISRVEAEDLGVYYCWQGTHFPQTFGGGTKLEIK
Kd (human MYCT1 (hMYCT1) [6]): 264 nM

Second part, the binder after the results:

Kd (human MYCT1 (hMYCT1) [3]): 3.34 nM
koff (human MYCT1 (hMYCT1) [3]): 0.0122 s⁻¹
kon (human MYCT1 (hMYCT1) [3]): 3.65e+06 M⁻¹ s⁻¹
B2: 11B6-z10-p3-uIgG1K (antibody, V domains shown)
VH: B1 VH with K19R, E42G, T78S, F80Y, T84N, N85S, S88A, I93V, I117V, A119S
VL: B1 VL with A7S, S14T, L15P, D17E, Q18P, G34A, K50Q, R81S, L88V, S105Q

Kd (human MYCT1 (hMYCT1) [4]): 484 nM
B5: 2B4-z2-p7-uIgG1K (antibody, V domains shown)
VH: B7 VH with N55S, L70M, V72T, K74T, R77S
VL: B7 VL with G34A

Kd (human MYCT1 (hMYCT1) [5]): 617 nM
B6: 2B4-z15-uIgG1K (antibody, V domains shown)
VH: B7 VH with V20M, M48I
VL: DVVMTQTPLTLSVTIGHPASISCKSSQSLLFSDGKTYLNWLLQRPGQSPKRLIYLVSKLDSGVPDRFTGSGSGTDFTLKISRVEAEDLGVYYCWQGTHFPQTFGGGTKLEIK

Kd (human MYCT1 (hMYCT1) [5]): 443 nM
B8: 2B4-z13-uIgG1K (antibody, V domains shown)
VH: B7 VH with V20M, M48I
VL: B7 VL

Kd (human MYCT1 (hMYCT1) [5]): 321 nM
B10: 2B4-z8-uIgG1K (antibody, V domains shown)
VH: B7 VH with M48I, L70M, V72T, K74T, R77S
VL: B7 VL

Kd (human MYCT1 (hMYCT1) [5]): 456 nM
B11: 2B4-z10-uIgG1K (antibody, V domains shown)
VH: B7 VH with L70M
VL: B7 VL

Kd (human MYCT1 (hMYCT1) [5]): 354 nM
B16: 2B4-z4-uIgG1K (antibody, V domains shown)
VH: B7 VH with L70M, K74T, R77S
VL: B7 VL

Kd (human MYCT1 (hMYCT1) [6]): 270 nM
B19: 2B4-p3-uIgG1K (antibody, V domains shown)
VH: B18 VH with G56A
VL: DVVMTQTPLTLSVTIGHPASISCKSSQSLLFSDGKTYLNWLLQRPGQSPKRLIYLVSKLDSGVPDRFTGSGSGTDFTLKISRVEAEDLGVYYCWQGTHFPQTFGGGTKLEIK

Kd (human MYCT1 (hMYCT1) [6]): > 500 nM
B20: 2B4-p4-uIgG1K (antibody, V domains shown)
VH: B18 VH
VL: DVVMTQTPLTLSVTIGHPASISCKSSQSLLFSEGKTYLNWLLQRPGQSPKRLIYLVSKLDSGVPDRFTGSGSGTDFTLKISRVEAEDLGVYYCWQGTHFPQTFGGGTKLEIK

Kd (human MYCT1 (hMYCT1) [6]): 288 nM
B21: 2B4-p6-uIgG1K (antibody, V domains shown)
VH: B18 VH
VL: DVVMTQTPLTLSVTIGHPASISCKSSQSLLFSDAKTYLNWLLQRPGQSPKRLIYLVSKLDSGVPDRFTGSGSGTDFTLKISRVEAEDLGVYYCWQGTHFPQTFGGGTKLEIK

Kd (human MYCT1 (hMYCT1) [6]): 224 nM
B22: 2B4-p2-uIgG1K (antibody, V domains shown)
VH: B18 VH with N55S
VL: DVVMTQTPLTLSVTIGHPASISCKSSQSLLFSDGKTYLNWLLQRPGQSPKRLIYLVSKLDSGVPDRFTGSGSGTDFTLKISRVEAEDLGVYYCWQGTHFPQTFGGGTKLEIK
